The stoichiometry N is a count of units in the complex or per binding partner.

The target of the assay is polyketide synthase 16 (Pks16) (D. discoideum (endogenous in AX2-214 cells)) (UniProt Q869W9). Nature of the assay: cryo-EM structure.

In turn, “polyketide synthase 16 (Pks16), Q869W9 1-2603” returned a stoichiometry N of 2.
